Consider 1 substance from article doi:10.1101/2020.02.05.935528.

The term stoichiometry N denotes a count of units in the complex or per binding partner.

The target in the assay is Nitrosopumilus maritimus 4-hydroxybutyryl-CoA dehydratase (Nitrosopumilus maritimus). Nature of the assay: crystal structure.

On to “Nitrosopumilus maritimus 4-hydroxybutyryl-CoA dehydratase (enzyme)”, for which the stoichiometry N was 4.
